# Source: publication PMC9437053
# Molecular target: ribosomal protein S1 (Escherichia coli, UniProt P0AG67 1-557)
# Assay: EMSA; natural S1; preferred over SBS-Up; EMSA: 1 uM biotin-RNA, 1x EMSA/Gel-shift binding buffer (Beyotime), 20 C, 30 min; native PAGE in ice-cold 0.5x TBE, 170 V; salt and pH not stated
binder,measurement,value
UCGGCUCGUAUAAUGUGUGGAACGCUUUUACUGUUUUAAGGAGAUAUACC (ssRNA) [SBS-Down-RNA],binding result,binds
